Here are results for four molecules from article PMC9391306.

The target of data set [1] is PARP1 WGR-CAT (UniProt P09874 518-1014). Kind of data set: fluorescence polarization. (In general: Polarisation of emitted light reports the rotation of a fluorescent probe.)
The target of data set [2] is PARP1 WGR-HD (UniProt P09874 527-786, del663-676). Kind of data set: fluorescence polarization.
The target in data set [3] is T1, PARP1 L698A/L701A (UniProt P09874 1-1014, L698A;L701A). In words: fluorescence polarization.
Data set [4] concerns the target T2, PARP1 L713F (UniProt P09874 1-1014, L713F). In words: fluorescence polarization.
Data set [5] has as its target T3, PARP1 G558L (UniProt P09874 1-1014, G558L). In words: fluorescence polarization.
Data set [6] concerns the target PARP1 Y569L (UniProt P09874 1-1014, Y569L). Kind of data set: fluorescence polarization.
Data set [7] concerns the target T4, PARP1 G558V (UniProt P09874 1-1014, G558V). In words: fluorescence polarization.
Data set [8] concerns the target T5, PARP1 ΔART (UniProt P09874 1-786). Kind of data set: fluorescence polarization.
The target of data set [9] is PARP1 Y569A (UniProt P09874 1-1014, Y569A). Kind of data set: fluorescence polarization.
Data set [10] has as its target T6, PARP1 ΔV687-E688 (ΔVE) (UniProt P09874 1-1014, del687-688). In words: fluorescence polarization.
The target in data set [11] is T7, PARP1 V687A/E688A (UniProt P09874 1-1014, V687A;E688A). In words: fluorescence polarization.
Data set [12] deals with T8, PARP1 M686G/V687P (UniProt P09874 1-1014, M686G;V687P). Kind of data set: fluorescence polarization.
Data set [13] addresses T9, PARP1 WT (UniProt P09874 1-1014). In words: fluorescence polarization.
Data set [14] concerns the target T10, PARP1 Zn1-Zn3 (linked);PARP1 WGR-HD (Homo sapiens?;Homo sapiens?, UniProt P09874;P09874 1-366;527-786, del97-206|del663-676). Kind of data set: fluorescence polarization.
Data set [15] has as its target T1, PARP1 L698A/L701A. Kind of data set: fluorescence polarization. The source holds these as a separate data set.
The target of data set [16] is T2, PARP1 L713F. Kind of data set: fluorescence polarization. This is another data set of the same source.
The target of data set [17] is T3, PARP1 G558L. Kind of data set: fluorescence polarization. The source holds these as a separate data set.
Data set [18] concerns the target T4, PARP1 G558V. Kind of data set: fluorescence polarization. The source holds these as a separate data set.
Data set [19] deals with T5, PARP1 ΔART. Kind of data set: fluorescence polarization. This is another data set of the same source.
Data set [20] has as its target PARP1 G558E (UniProt P09874 1-1014, G558E). Kind of data set: fluorescence polarization.
Data set [21] addresses T6, PARP1 ΔV687-E688 (ΔVE). In words: fluorescence polarization. This is another data set of the same source.
In data set [22] the target is T7, PARP1 V687A/E688A. Kind of data set: fluorescence polarization. This is another data set of the same source.
In data set [23] the target is T8, PARP1 M686G/V687P. Kind of data set: fluorescence polarization. This is another data set of the same source.
Data set [24] addresses T9, PARP1 WT. In words: fluorescence polarization. This is another data set of the same source.
Data set [25] concerns the target PARP1 Zn1;PARP1 Zn3;PARP1 WGR-HD (Homo sapiens?;Homo sapiens?;Homo …, UniProt P09874;P09874;P09874 1-96;216-366;527-786, ||del663-676). In words: X-ray crystallography.
Data set [26] deals with PARP1 Zn1-Zn3 (linked);PARP1 WGR-CAT ΔVE (Homo sapiens?;Homo sapiens?, UniProt P09874;P09874 1-366;518-1014, del97-206|del687-688). In words: X-ray crystallography.
In data set [27] the target is T10, PARP1 Zn1-Zn3 (linked);PARP1 WGR-HD. Kind of data set: X-ray crystallography.

Where two headings read alike, the source gives them in different places.

B1: 18-bp DSB duplex (dsDNA)
DNA 1: GGGTTGCGGCCGCTTGGG
DNA 2: CCCAAGCGGCCGCAACCC
Turning to B1, the binding result in [1] and in [2] was “no binding” each time. The dissociation constant Kd in data set [3] worked out at 15.3 ± 7.8 nM; in data set [4] it was 6.2 ± 3.1 nM; in data set [5] it was 7.6 ± 1.2 nM; in [6] it was 40.8 ± 2.1 nM; in data set [7], 10.2 ± 1.5 nM; in [8], 15.4 ± 1.8 nM. For the same molecule, the Kd in data set [9] is 20.6 ± 1.4 nM; in data set [10], 8 ± 1.9 nM; in [11], 10.3 ± 3.6 nM; in data set [12], 4.8 ± 1.4 nM; in data set [13], 8.4 ± 1 nM; in data set [14], 7 ± 2.4 nM. The Kd in data set [15] was 64.4 ± 13.4 nM; in data set [16] it was 21.3 ± 3.5 nM; in [17] it was 57.2 ± 5.8 nM; in [18], 66.7 ± 7.4 nM; in data set [19] it was 12.1 ± 4.6 nM; in data set [20] it was 118 ± 23.2 nM. Besides, the Kd in [21] is 9.4 ± 1.3 nM; in data set [22], 71.2 ± 10.7 nM; in data set [23] it was 7.3 ± 2.3 nM; in data set [24], 59.7 ± 9.2 nM.

B2: 12-bp palindromic duplex (dsDNA)
DNA 1: ATGCGGCCGCAT
DNA 2: ATGCGGCCGCAT
On to B2, for which, in data set [25], the binding result was “binds”.

B3: 5-bp duplex (dsDNA)
DNA 1: CGACG
DNA 2: CGTCG
As for B3, in [26], the binding result is listed as “binds”.

B4: 10-bp palindromic duplex (dsDNA)
DNA 1: GCCTGCAGGC
DNA 2: GCCTGCAGGC
Turning to B4, the binding result in data set [27] is recorded as “binds”.

As a reminder, the Kd is the free concentration of one partner at which half of the binding sites on the other are occupied at equilibrium, for simple one-to-one binding. A low value points to a tighter complex.
